Holding throughout (assay): ELISA
(In an ELISA, binding on a coated surface is turned into a signal by an enzyme label.)

The target in test [1] is T1, HEV genotype 1 E2(I) dimer protein (hepatitis E virus genotype 1 (human HEV), UniProt P29326).
Test [2] deals with HEV genotype 4 E2(IV) (Hepatitis E virus genotype 4, swine …, UniProt D3VV84, strain).
Test [3] has as its target T1, HEV genotype 1 E2(I) dimer protein. This is another data set of the same source.
The target in test [4] is Other eight antigen mutants (E2 mutants preincubated with 8C11).

B1: neutralizing monoclonal antibody 8C11 (antibody, V domains shown)
VH: QVTLKESGPGILQPSQTLSLTCSFSGFSLSTSGMGVGWIRQPSGKGLEWLAHIWWDDVKRYSPALKSRLTISKDTSSSQLFLKIASVDTADTATYYCARIKSVITTGDYALDYWGQGTSVAVSS
VL: DIQMTQSPASLSVSVGETVTITCRASEIIYSNLAWYQQKQGKSPQLLVYSATNLAEGVPSRFSGSGSGTQYSLKINSLQSEDFGSYYCQHFWGNPWTFGGGTKLEIK
As to B1, in test [1], the ET50 amounted to 172000 dilution fold and the “ET50 (after a non-related mAb)” value worked out at 188000 dilution fold. The binding result in test [2] is recorded as “binds”.

B2: 8C11 mAb mutant D88A (heavy chain) (antibody, V domains shown)
VH: QVTLKESGPGILQPSQTLSLTCSFSGFSLSTSGMGVGWIRQPSGKGLEWLAHIWWDDVKRYSPALKSRLTISKDTSSSQLFLKIASVATADTATYYCARIKSVITTGDYALDYWGQGTSVAVSS
VL: DIQMTQSPASLSVSVGETVTITCRASEIIYSNLAWYQQKQGKSPQLLVYSATNLAEGVPSRFSGSGSGTQYSLKINSLQSEDFGSYYCQHFWGNPWTFGGGTKLEIK
As for B2, in test [3], the binding result is recorded as “binds”.

B3: 8C11 mAb mutant K66A (heavy chain) (antibody, V domains shown)
VH: QVTLKESGPGILQPSQTLSLTCSFSGFSLSTSGMGVGWIRQPSGKGLEWLAHIWWDDVKRYSPALASRLTISKDTSSSQLFLKIASVDTADTATYYCARIKSVITTGDYALDYWGQGTSVAVSS
VL: DIQMTQSPASLSVSVGETVTITCRASEIIYSNLAWYQQKQGKSPQLLVYSATNLAEGVPSRFSGSGSGTQYSLKINSLQSEDFGSYYCQHFWGNPWTFGGGTKLEIK
Take B3: in test [3], the binding result is on record as “binds”.

B4: 8C11 mAb mutant S67A (heavy chain) (antibody, V domains shown)
VH: QVTLKESGPGILQPSQTLSLTCSFSGFSLSTSGMGVGWIRQPSGKGLEWLAHIWWDDVKRYSPALKARLTISKDTSSSQLFLKIASVDTADTATYYCARIKSVITTGDYALDYWGQGTSVAVSS
VL: DIQMTQSPASLSVSVGETVTITCRASEIIYSNLAWYQQKQGKSPQLLVYSATNLAEGVPSRFSGSGSGTQYSLKINSLQSEDFGSYYCQHFWGNPWTFGGGTKLEIK
For the molecule B4, in test [3], the binding result is given as “binds”.

B5: neutralizing monoclonal antibody 8H3 (antibody, V domains shown)
VH: QVQLKESGPGLVAPSQSLSITCTVSGFSLIGYGVNWVRQPPEKGLEWLGMIWGDGSTDYNSALKSRLSITKDNSKSQVFLKMNSLQTDDTARYYCAMGVRPDPFDYWGQGTLVTVSA
VL: NIMMTQSPSSLAVSAGEKVTMSCKSSQSVLYSSNQKNYLAWYQQKPGQSPKLLIYWASARESGVPDRFTGSGSGTDFTLTINSVQTEDLAVYYCHQYLSSYTFGGGTKLEIK
B5: in test [1], the ET50 came to 4660 dilution fold and the “ET50 (after a non-related mAb, anti-HPV mAb A12A3)” value was determined as 3030 dilution fold. Also, the binding result in test [2] is given as “binds”. Besides, in test [4], the fold increase in synergy (8H3 binding with 8C11 pre-bound) was found to be 10 fold.

The record behind these values is article PMC11626150 (Proceedings of the National Academy of Sciences of the …, 2024).
